Assay results published in PMC12084609, “Structural insights into small-molecule agonist recognition and activation of complement receptor C3aR” (The EMBO Journal, 2025).
Changes are numbered by the printed parent chain. Several values for one entry are separate records, joined by “and”; a condition that tells them apart may be missing. Equal values may be shown once. Read-outs that look alike come from different tables or passages of the source.

Tests used:
Type in all cases: cell-based
C3aR I102^3.32A = molecular target: T1, C3aR I102^3.32A (Homo sapiens, UniProt Q16581, I102A); test: GloSensor-based cAMP assay, C3aR mutant I102A; details: for ΔpIC50 ± SE of Diff.: I102^3.32A relative to WT C3aR; for cAMP response (% Forskolin): I1023.32A
T1 construct: expressed in transfected cells; host or cells: HEK293T
T1 sequence (Q16581 1-482 I102A): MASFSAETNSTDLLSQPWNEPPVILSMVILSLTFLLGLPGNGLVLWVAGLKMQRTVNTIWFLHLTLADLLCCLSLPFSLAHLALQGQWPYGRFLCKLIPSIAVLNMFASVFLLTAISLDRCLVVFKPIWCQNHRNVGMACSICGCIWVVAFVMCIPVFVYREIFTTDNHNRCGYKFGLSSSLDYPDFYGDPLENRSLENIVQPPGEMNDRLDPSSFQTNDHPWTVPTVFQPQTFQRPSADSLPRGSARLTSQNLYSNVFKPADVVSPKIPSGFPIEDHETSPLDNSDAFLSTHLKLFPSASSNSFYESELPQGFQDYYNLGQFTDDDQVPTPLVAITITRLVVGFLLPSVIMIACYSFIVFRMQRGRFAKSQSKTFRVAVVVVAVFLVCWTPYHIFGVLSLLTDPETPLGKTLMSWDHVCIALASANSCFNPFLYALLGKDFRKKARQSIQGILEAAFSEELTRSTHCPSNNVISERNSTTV
Protocol: (§1) HEK293T cells were seeded on 6-well plates (NEST) and transfected with pGlosensor™-22F plasmids (Promega) and pcDNA3.1 plasmids encoding C3aR or its mutants an with N-terminal FLAG tag. After 48 h, cells were detached with Accutase solution (Sigma-Aldrich) and washed with PBS, and resuspended in assay buffer (CO2-independent medium with 0.5 mg mL^−1D-luciferin). 100,000–200,000 cells were seeded on 96-well white bottom plates (SPL) and incubated at 37 °C for 45 min followed by 45 min incubation at room temperature. After 90 min of incubation, basal luminescence signals were recorded. In total, 25 μl of test ligand with various concentrations and 1 μM Forskolin (Sigma-Aldrich) were treated to the cells and luminescence signals were measured by Tristar 2 LB 942 multimode reader (Berthold). […] Relative luminescence unit (%) was calculated with the signal of wells treated with vehicle as 0% and the signal of wells treated with 1 μM Forskolin as 100% (DiRaddo et al, [2014]). Nonlinear regression was performed using a three-parameter logistic equation.

C3aR V103^3.33A = molecular target: T2, C3aR V103^3.33A (Homo sapiens, UniProt Q16581, V103A); test: GloSensor-based cAMP assay, C3aR mutant V103A; details: for Mean Diff. of pIC50, WT vs. V103A: Dunnett's multiple comparisons test, WT minus mutant; for cAMP response (% Forskolin): single replicates; for ΔpIC50 ± SE of Diff.: V103^3.33A relative to WT C3aR
T2 construct: expressed in transfected cells; host or cells: HEK293T
T2 sequence (Q16581 1-482 V103A): T1 sequence (Q16581 1-482 I102A) with A102I, V103A
Protocol: as §1

C3aR Y393^6.51A = molecular target: T3, C3aR Y393^6.51A (Homo sapiens, UniProt Q16581, Y393A); test: GloSensor-based cAMP assay, C3aR mutant Y393A; details: for cAMP response (% Forskolin): Y3936.51A
T3 construct: expressed in transfected cells; host or cells: HEK293T
T3 sequence (Q16581 1-482 Y393A): T1 sequence (Q16581 1-482 I102A) with A102I, Y393A
Protocol: as §1

[1] = Log[C3a (M)] -7, single replicates
[2] = Log[C3a (M)] -8, single replicates
[3] = Log[C3a (M)] -9, single replicates
[4] = Log[C3a (M)] -10, single replicates
[5] = Log[C3a (M)] -11, single replicates
[6] = Log[C3a (M)] -12, single replicates

C3a: anaphylatoxin C3a, natural peptide ligand of C3aR (a 77-amino acid peptide), Sigma-Aldrich
Mean Diff. of pIC50, WT vs. I102A (C3aR I102^3.32A; Dunnett's multiple comparisons test, WT minus mutant): 0.080
ΔpIC50 ± SE of Diff. (C3aR I102^3.32A): -0.08 ± 0.06
IC50 (C3aR I102^3.32A; I102^3.32A, dose-response plot, read-out: IC50): 3.33 nM
pIC50 (Replicate) (C3aR I102^3.32A; I102^3.32A, individual replicates): 8.61 and 8.63 and 8.49
pIC50 ± SEM (Mean) (C3aR I102^3.32A; I102^3.32A, mean of independent experiments): 8.47
cAMP response (% Forskolin) (C3aR I102^3.32A; [1]): 12.51 % Forskolin and 13.87 % Forskolin and 13.89 % Forskolin and 16.73 % Forskolin
cAMP response (% Forskolin) (C3aR I102^3.32A; [2]): 18.09 % Forskolin and 20.55 % Forskolin and 21.20 % Forskolin and 43.71 % Forskolin
cAMP response (% Forskolin) (C3aR I102^3.32A; [3]): 79.37 % Forskolin and 75.76 % Forskolin and 87.66 % Forskolin and 96.25 % Forskolin
cAMP response (% Forskolin) (C3aR I102^3.32A; [4]): 100.22 % Forskolin and 97.06 % Forskolin and 101.20 % Forskolin and 92.74 % Forskolin
cAMP response (% Forskolin) (C3aR I102^3.32A; [5]): 101.22 % Forskolin and 97.60 % Forskolin and 96.34 % Forskolin and 96.47 % Forskolin
cAMP response (% Forskolin) (C3aR I102^3.32A; [6]): 100.09 % Forskolin and 99.44 % Forskolin and 103.06 % Forskolin and 100.29 % Forskolin
Mean Diff. of pIC50, WT vs. V103A (C3aR V103^3.33A): 0.086
cAMP response (% Forskolin) (C3aR V103^3.33A; V103A, Log[C3a (M)] -7): 16.81 % Forskolin and 17.64 % Forskolin and 16.37 % Forskolin
cAMP response (% Forskolin) (C3aR V103^3.33A; V103A, Log[C3a (M)] -8): 18.63 % Forskolin and 17.74 % Forskolin and 17.49 % Forskolin
cAMP response (% Forskolin) (C3aR V103^3.33A; V103A, Log[C3a (M)] -9): 66.34 % Forskolin and 67.98 % Forskolin and 37.55 % Forskolin
cAMP response (% Forskolin) (C3aR V103^3.33A; V103A, Log[C3a (M)] -10): 87.50 % Forskolin and 90.87 % Forskolin and 75.99 % Forskolin
cAMP response (% Forskolin) (C3aR V103^3.33A; V103A, Log[C3a (M)] -11): 101.77 % Forskolin and 100.57 % Forskolin and 97.94 % Forskolin
cAMP response (% Forskolin) (C3aR V103^3.33A; V103A, Log[C3a (M)] -12): 105.75 % Forskolin and 100.95 % Forskolin and 97.98 % Forskolin
ΔpIC50 ± SE of Diff. (C3aR V103^3.33A): -0.09 ± 0.05
IC50 (C3aR V103^3.33A; V103^3.33A, dose-response plot, read-out: IC50): 3.53 nM
pIC50 (Replicate) (C3aR V103^3.33A; V103^3.33A, individual replicates): 8.49 and 8.72 and 8.44 and 8.20
pIC50 ± SEM (Mean) (C3aR V103^3.33A; V103^3.33A, mean of independent experiments): 8.46
cAMP response (% Forskolin) (C3aR V103^3.33A; V1033.33A, Log[C3a (M)] -7): 19.41 % Forskolin and 19.52 % Forskolin and 19.42 % Forskolin and 22.72 % Forskolin
cAMP response (% Forskolin) (C3aR V103^3.33A; V1033.33A, Log[C3a (M)] -8): 24.04 % Forskolin and 22.92 % Forskolin and 25.51 % Forskolin and 44.96 % Forskolin
cAMP response (% Forskolin) (C3aR V103^3.33A; V1033.33A, Log[C3a (M)] -9): 89.16 % Forskolin and 71.89 % Forskolin and 87.77 % Forskolin and 103.75 % Forskolin
cAMP response (% Forskolin) (C3aR V103^3.33A; V1033.33A, Log[C3a (M)] -10): 100.58 % Forskolin and 94.90 % Forskolin and 95.96 % Forskolin and 103.23 % Forskolin
cAMP response (% Forskolin) (C3aR V103^3.33A; V1033.33A, Log[C3a (M)] -11): 100.23 % Forskolin and 96.38 % Forskolin and 92.81 % Forskolin and 102.90 % Forskolin
cAMP response (% Forskolin) (C3aR V103^3.33A; V1033.33A, Log[C3a (M)] -12): 97.59 % Forskolin and 96.90 % Forskolin and 93.29 % Forskolin and 103.97 % Forskolin
ΔpIC50 ± SE of Diff. (C3aR Y393^6.51A; Y393^6.51A relative to WT C3aR): -1.34 ± 0.2
IC50 (C3aR Y393^6.51A; Y393^6.51A, dose-response plot, read-out: IC50): 35.3 nM
pIC50 ± SEM (Mean) (C3aR Y393^6.51A; Y393^6.51A, mean of independent experiments): 7.26
cAMP response (% Forskolin) (C3aR Y393^6.51A; [1]): 22.11 % Forskolin and 35.95 % Forskolin and 17.03 % Forskolin and 39.16 % Forskolin and 16.00 % Forskolin and 10.74 % Forskolin
cAMP response (% Forskolin) (C3aR Y393^6.51A; [2]): 77.53 % Forskolin and 92.37 % Forskolin and 48.78 % Forskolin and 85.94 % Forskolin and 83.42 % Forskolin and 59.04 % Forskolin
cAMP response (% Forskolin) (C3aR Y393^6.51A; [3]): 100.98 % Forskolin and 105.20 % Forskolin and 100.01 % Forskolin and 92.90 % Forskolin and 94.02 % Forskolin and 86.75 % Forskolin
cAMP response (% Forskolin) (C3aR Y393^6.51A; [4]): 91.84 % Forskolin and 102.66 % Forskolin and 96.87 % Forskolin and 100.10 % Forskolin and 89.56 % Forskolin and 88.42 % Forskolin
cAMP response (% Forskolin) (C3aR Y393^6.51A; [5]): 102.78 % Forskolin and 104.06 % Forskolin and 100.84 % Forskolin and 95.25 % Forskolin and 103.11 % Forskolin and 88.56 % Forskolin
cAMP response (% Forskolin) (C3aR Y393^6.51A; [6]): 99.54 % Forskolin and 99.47 % Forskolin and 94.11 % Forskolin and 90.18 % Forskolin and 94.48 % Forskolin and 86.37 % Forskolin

Cc1cc(C(c2ccc(Cl)cc2)c2ccc(Cl)cc2)sc1C(=O)N[C@@H](CCCNC(=N)N)C(=O)O [JR14a, reference compound]
remaining activity at 1 µM (C3aR I102^3.32A; I102A, Log[JR14a (M)] -6, single replicates, read-out: cAMP response (% Forskolin)): 11.4%
remaining activity at 0.1 µM (C3aR I102^3.32A; I102A, Log[JR14a (M)] -7, single replicates, read-out: cAMP response (% Forskolin)): 12.3%
remaining activity at 0.01 µM (C3aR I102^3.32A; I102A, Log[JR14a (M)] -8, single replicates, read-out: cAMP response (% Forskolin)): 52.6%
remaining activity at 0.001 µM (C3aR I102^3.32A; I102A, Log[JR14a (M)] -9, single replicates, read-out: cAMP response (% Forskolin)): 79.2%
remaining activity at 0.0001 µM (C3aR I102^3.32A; I102A, Log[JR14a (M)] -10, single replicates, read-out: cAMP response (% Forskolin)): 97.7%
remaining activity at 10 pM (C3aR I102^3.32A; I102A, Log[JR14a (M)] -11, single replicates, read-out: cAMP response (% Forskolin)): 104%
ΔpIC50 ± SE of Diff. (C3aR I102^3.32A): -0.13 ± 0.07
IC50 (C3aR I102^3.32A; IC50, I102^3.32A, dose-response plot): 7.05 nM
IC50 (C3aR I102^3.32A; pIC50 (Replicate), I102^3.32A, individual replicates): 7.76 nM and 9.12 nM and 4.68 nM
IC50 (C3aR I102^3.32A; pIC50 ± SEM (Mean), I102^3.32A, mean of independent experiments): 6.92 nM
Mean Diff. of pIC50, WT vs. V103A (C3aR V103^3.33A): 0.201
IC50 (C3aR V103^3.33A; IC50, V103^3.33A, dose-response plot): 8.93 nM
ΔpIC50 ± SE of Diff. (C3aR V103^3.33A): -0.20 ± 0.05
IC50 (C3aR V103^3.33A; pIC50 (Replicate), V103^3.33A, individual replicates): 12.9 nM and 14.8 nM and 3.02 nM
IC50 (C3aR V103^3.33A; pIC50 ± SEM (Mean), V103^3.33A, mean of independent experiments): 8.32 nM
IC50 (C3aR Y393^6.51A; IC50, Y393^6.51A, dose-response plot): 312 nM
remaining activity at 1 µM (C3aR Y393^6.51A; Y393A, Log[JR14a (M)] -6, single replicates, read-out: cAMP response (% Forskolin)): 21.8%
remaining activity at 0.1 µM (C3aR Y393^6.51A; Y393A, Log[JR14a (M)] -7, single replicates, read-out: cAMP response (% Forskolin)): 72.2%
remaining activity at 0.01 µM (C3aR Y393^6.51A; Y393A, Log[JR14a (M)] -8, single replicates, read-out: cAMP response (% Forskolin)): 96.3%
remaining activity at 0.0001 µM (C3aR Y393^6.51A; Y393A, Log[JR14a (M)] -10, single replicates, read-out: cAMP response (% Forskolin)): 94.3%
remaining activity at 10 pM (C3aR Y393^6.51A; Y393A, Log[JR14a (M)] -11, single replicates, read-out: cAMP response (% Forskolin)): 93.5%
IC50 (C3aR Y393^6.51A; pIC50 (Replicate), Y393^6.51A, individual replicates): 309 nM and 398 nM and 263 nM
IC50 (C3aR Y393^6.51A; pIC50 ± SEM (Mean), Y393^6.51A, mean of independent experiments): 316 nM
